B1: Gamma-crystallin C, residues 91 to 170; numbered along this chain, P07315 (parent)
chain: RLYEREDHKGLMMELSEDCPSIQDRFHLSEIRSLHVLEGCWVLYELPNYRGRQYLLRPQEYRRCQDWGAMDAKAGSLRRV

Variants of: B1
Assay: abundance fitness (aPCA) (normalised: wild type 0, dead -1); higher = more abundant; growth selection in yeast, the domain comes from the species named
Settings: Homo sapiens

Abundance fitness, by site and new letter:
Q53: S 0.074; K -0.19; C -0.219; E 0.087; F -0.425; P -0.144; V -0.747; T -0.197; A -0.122; H -0.386; L -0.78; M -0.345; W -0.225; R -0.092; G -0.103; D -0.241; Y -0.159; N 0.005
R50: W -0.664; T -0.002; E -0.068; V -0.085; A -0.066; K -0.029; G 0.04; F -0.375; N -0.242; Q -0.012; M -0.108; C -0.021; S -0.007; P -0.916; L -0.063; Y -0.606
L46: Q -0.262; T -0.863; E 0.04; G -0.27; C -0.075; Y -0.162; M -0.188; N -0.767; K -0.051; W -0.237; V -0.98; A 0.023; R -0.146; F 0.047; D -0.43
L43: C -0.701; R -1.01; T -0.674; F -0.645; A -0.931; E -0.804; M -0.099; N -0.673; I -0.251; Q -0.606; G -0.721; Y -0.224; H -0.757; S -0.865; P -0.992; V -0.81
C40: N 0.119; P -0.446; A -0.025; R -0.138; D 0.058; Q 0.055; V 0.002; H -0.09; W -0.103; L -0.042; S 0.041; T 0.07; G -0.186; Y -0.284; K -0.202; I -0.222; E 0.052
R52: G -0.402; V -0.137; H -0.324; L -0.219; D -0.338; E -0.28; N -0.031; Q -0.128; C -0.587; T -0.058; W -0.523; A 0.009; S -0.234; P -0.093; I -0.31
L55: Y 0.161; H -0.053; W -0.098; F -0.078; K -0.161; A -0.09; V -0.087; S -0.08; Q -0.067; T 0.1; M -0.01; C -0.241; I 0.075; G -0.082; D -0.441; E -0.074
L56: H -0.953; S -0.957; R -0.836; G -0.928; I -0.515; K -0.806; Y -0.926; A -0.939; M -0.553; T -0.636; E -0.93; W -0.988; P -0.931
Y49: C -0.914; V -0.969; H -0.94; S -0.891; Q -0.85; L -0.906; K -0.918; M -0.981; A -1.04; G -1.11; N -0.198; R -0.9; W -0.551; E -0.734; P -0.942
E45: M -0.792; N -0.933; H -0.582; S -0.149; L -0.875; D -0.265; I -0.762; A -0.191; Q -0.211; W -0.644; T -0.118; P -0.832; R -0.437; K -0.465; G -0.492
N48: Q -0.017; A -0.348; G -0.07; S -0.238; V -0.929; R -0.234; Y -0.006; K -0.215; E -0.314; D -0.007; F 0.077
